Assay results reported in PMC5505994 (Scientific Reports, 2017).

B1: alkyl hydroperoxide reductase subunit C (AhpC) from Mycobacterium bovis (BCG strain), wild type (enzyme)
chain: MPLLTIGDQFPAYQLTALIGGDLSKVDAKQPGDYFTTITSDEHPGKWRVVFFWPKDFTFVCPTEIAAFSKLNDEFEDRDAQILGVSIDSEFAHFQWRAQHNDLKTLPFPMLSDIKRELSQAAGVLNADGVADRVTFIVDPNNEIQFVSATAGSVGRNVDEVLRVLDALQSDELCACNWRKGDPTLDAGELLKASA
B2: Mycobacterium bovis thioredoxin TrxC (natural protein)
chain: MTDSEKSATIKVTDASFATDVLSSNKPVLVDFWATWCGPCKMVAPVLEEIATERATDLTVAKLDVDTNPETARNFQVVSIPTLILFKDGQPVKRIVGAKGKAALLRELSDVVPNLN
B3: MbAhpC with deletion of the loop residues 23 to 34 (enzyme)
chain: MPLLTIGDQFPAYQLTALIGGDFTTITSDEHPGKWRVVFFWPKDFTFVCPTEIAAFSKLNDEFEDRDAQILGVSIDSEFAHFQWRAQHNDLKTLPFPMLSDIKRELSQAAGVLNADGVADRVTFIVDPNNEIQFVSATAGSVGRNVDEVLRVLDALQSDELCACNWRKGDPTLDAGELLKASA

Experiments:
SEC = molecular target: the molecule itself; test: SEC
[1] = molecular target: the molecule itself; test: negative-stain electron microscopy with 2D classification
[2] = molecular target: B1; test: NMR titration; details: both partners purified

| Binder | stoichiometry N (SEC) | stoichiometry N [1] | binding result [2] |
| --- | --- | --- | --- |
| B1 | 2 | 12 |  |
| B2 |  |  | binds |
| B3 | 2 |  |  |
